# Laboratory results as given in patent US20130116182A1, “Factor VIII B Cell Epitope Variants Having Reduced Immunogenicity” (priority 2009, published 2013).
# How the values were obtained:
# CD4+ T cells [1] = test: Staining with peptide-loaded DR0101 tetramers (tetramer guided epitope mapping); assay type: cell-based, human; settings: for Positive (individual peptide loaded tetramer staining): DR0101 tetramers, severe HA inhibitor subject 56A, day 18
# Excerpt: T-cell clones were obtained from blood samples from both brothers by staining CD4+ cells with fluorescent DR0101 tetramers that were loaded with peptide FVIII2194-2213, followed by single-cell sorting and expansion. Clones were expanded by stimulation with irradiated peripheral blood mononuclear cells (PBMCs) from an HLA-mismatched individual plus phytohemagglutinin (Remel, Lenexa, Kans.) in the presence of human IL-2 (Hemagen Diagnostics, Inc., Columbia, Md.). Clonality was confirmed by tetramer staining, multiplex PCR and sequencing of the VDJ region in the PCR products.
# (§1) a. Added 1.5 μl PE-labeled tetramers (final concentration 10 μg/ml. b. Mixed by shaking the rack containing the FACS tubes. c. Incubated the cells with tetramer for 1 hr in the 37 C 5% CO2 incubator.
# (§2) a. Incubated tubes in the refrigerator for >5 min. b. Made an antibody cocktail consisting of 3.75 μl anti-CD4-APC, 3.75 μl anti-CD3-PerCP, 3.75 μl anti-CD25-FITC per sample. 3.75 ul×50=187.5 ul. c. Added 3.75 μl control antibodies to 75 μl control cells (1 —unstained; 2—anti-CD4-FITC; 3—anti-CD4-PE; 4—anti-CD3-PerCP; 5—anti-CD4-APC). d. Added 11.25 μl antibody cocktail to each sample. e. Incubated all samples at 4 C (put in the refrigerator) for 20 min in the dark.
# (§3) a. Added 2 ml cold FACS wash buffer to each tube. b. Centrifuged at 1200 rpm, 10 min, 4 C, low brake in the Beckman Coulter Allegra 6KR centrifuge. c. Decanted the supernatant. d. Resuspended in 200 μl FACS wash buffer. e. Stored tubes in a covered ice container for FACS analysis.
# (§4) a. Added 1.5 μl PE-labeled tetramers (final concentration 10 μg/ml). b. Mixed by shaking the rack containing the FACS tubes. c. Incubated the cells with tetramer for 1 hr in the 37 C 5% CO2 incubator.
# as §2, with “ul×55=206.25 ul (For the CD25-FITC Ab, I opened a new vial (Lot #E016414)—taking 100 ul from this lot.)” for “ul×50=187.5 ul.”
# (§5) a. Added 2 ml cold FACS wash buffer to each tube. b. Centrifuged at 1200 rpm, 10 min, 4 C, low brake in the Beckman Coulter Allegra 6KR centrifuge. c. Decanted the supernatant. d. Resuspended in 250 μl FACS wash buffer. e. Stored tubes in a covered ice container for FACS analysis.
# CD4+ T cells [2] = test: Staining with peptide-loaded DR1001 tetramers (tetramer guided epitope mapping); assay type: cell-based, human; settings: for Positive (individual peptide loaded tetramer staining): DR1001 tetramers, severe HA inhibitor subject 56A, day 18
# Procedure: as §1, §2, §3, §4
# as §2, with “ul×55=206.25 ul (For the CD25-FITC Ab, I opened a new vial (Lot #E016414)—taking 100 ul from this lot.)” for “ul×50=187.5 ul.”
# as §5
# BO2C11 Fab fragment = test: SPR, BO2C11 Fab on chip, 25 C, 1:1 model
Kd (BO2C11 Fab fragment),koff (BO2C11 Fab fragment),kon (BO2C11 Fab fragment),Substance,Positive (individual peptide loaded tetramer staining) (CD4+ T cells [1]),Positive (individual peptide loaded tetramer staining) (CD4+ T cells [2]),"tetramer staining (CD4+ T cells [2]; loaded on DR1001, subject 56A)","tetramer staining (CD4+ T cells [1]; loaded on DR0101, subject 56A)"
,,,DLNSCSMPLGMESKAISDAQ [Mutant C2-1],no,,,
,,,DPRCLTRYYSSFVNMERDLA [Mutant A2-20],no,no,,
,,,FPILPGEIFKYKWTVTVEDG [Mutant A2-17],no,no,,
,,,FSWIKVDLLAPMIIHGIKTQ [Mutant C1-11],no,no,,
19 pM,0.00016 s⁻¹,8.4e+06 M⁻¹ s⁻¹,FVIII C2 domain protein A2201P (from UniProt P00451 2189-2351),,,,
8.6 pM,0.00019 s⁻¹,2.2e+07 M⁻¹ s⁻¹,FVIII C2 domain protein E2181A (from UniProt P00451 2189-2351),,,,
2.6 pM,5.4e-05 s⁻¹,2.1e+07 M⁻¹ s⁻¹,FVIII C2 domain protein E2327A (from UniProt P00451 2189-2351),,,,
5.4 pM,3.8e-05 s⁻¹,7.1e+06 M⁻¹ s⁻¹,FVIII C2 domain protein H2211A (from UniProt P00451 2189-2351),,,,
7.7 pM,0.00017 s⁻¹,2.2e+07 M⁻¹ s⁻¹,FVIII C2 domain protein H2269A (from UniProt P00451 2189-2351),,,,
1.9 pM,2.9e-05 s⁻¹,1.5e+07 M⁻¹ s⁻¹,FVIII C2 domain protein H2309A (from UniProt P00451 2189-2351),,,,
4.9 pM,7.3e-05 s⁻¹,1.5e+07 M⁻¹ s⁻¹,FVIII C2 domain protein H2315A (from UniProt P00451 2189-2351),,,,
13 pM,5.9e-05 s⁻¹,4.6e+06 M⁻¹ s⁻¹,FVIII C2 domain protein K2207A (from UniProt P00451 2189-2351),,,,
3.4 pM,6.4e-05 s⁻¹,1.9e+07 M⁻¹ s⁻¹,FVIII C2 domain protein K2227A (from UniProt P00451 2189-2351),,,,
2.9 pM,2e-05 s⁻¹,6.8e+06 M⁻¹ s⁻¹,FVIII C2 domain protein K2227Q (from UniProt P00451 2189-2351),,,,
6.1 pM,3.7e-05 s⁻¹,6.1e+06 M⁻¹ s⁻¹,FVIII C2 domain protein K2249A (from UniProt P00451 2189-2351),,,,
26 pM,0.00019 s⁻¹,7.2e+06 M⁻¹ s⁻¹,FVIII C2 domain protein K2279A (from UniProt P00451 2189-2351),,,,
1.9 pM,4.4e-05 s⁻¹,2.3e+07 M⁻¹ s⁻¹,FVIII C2 domain protein L2212A (from UniProt P00451 2189-2351),,,,
15 pM,0.00017 s⁻¹,1.1e+07 M⁻¹ s⁻¹,FVIII C2 domain protein L2273A (from UniProt P00451 2189-2351),,,,
2.4 pM,5.7e-05 s⁻¹,2.4e+07 M⁻¹ s⁻¹,FVIII C2 domain protein L2302A (from UniProt P00451 2189-2351),,,,
2.7 pM,8.6e-05 s⁻¹,3.2e+07 M⁻¹ s⁻¹,FVIII C2 domain protein N2224A (from UniProt P00451 2189-2351),,,,
2.4 pM,3.9e-05 s⁻¹,1.6e+07 M⁻¹ s⁻¹,FVIII C2 domain protein N2225A (from UniProt P00451 2189-2351),,,,
5 pM,6e-05 s⁻¹,1.2e+07 M⁻¹ s⁻¹,FVIII C2 domain protein N2277A (from UniProt P00451 2189-2351),,,,
5.3 pM,9.5e-05 s⁻¹,1.8e+07 M⁻¹ s⁻¹,FVIII C2 domain protein P2300L (from UniProt P00451 2189-2351),,,,
4.4 pM,6.1e-05 s⁻¹,1.4e+07 M⁻¹ s⁻¹,FVIII C2 domain protein Q2213A (from UniProt P00451 2189-2351),,,,
5.3 pM,3.9e-05 s⁻¹,7.4e+06 M⁻¹ s⁻¹,FVIII C2 domain protein Q2222A (from UniProt P00451 2189-2351),,,,

Kd (BO2C11 Fab fragment),koff (BO2C11 Fab fragment),kon (BO2C11 Fab fragment),Substance,Positive (individual peptide loaded tetramer staining) (CD4+ T cells [1]),Positive (individual peptide loaded tetramer staining) (CD4+ T cells [2]),"tetramer staining (CD4+ T cells [2]; loaded on DR1001, subject 56A)","tetramer staining (CD4+ T cells [1]; loaded on DR0101, subject 56A)"
1.5 pM,0.00018 s⁻¹,1.2e+08 M⁻¹ s⁻¹,FVIII C2 domain protein Q2270A (from UniProt P00451 2189-2351),,,,
3 pM,6.8e-05 s⁻¹,2.3e+07 M⁻¹ s⁻¹,FVIII C2 domain protein Q2311A (from UniProt P00451 2189-2351),,,,
25 pM,0.00032 s⁻¹,1.3e+07 M⁻¹ s⁻¹,FVIII C2 domain protein Q2316A (from UniProt P00451 2189-2351),,,,
9.2 pM,9.2e-05 s⁻¹,1e+07 M⁻¹ s⁻¹,FVIII C2 domain protein R2304H (from UniProt P00451 2189-2351),,,,
4.7 pM,9e-05 s⁻¹,1.9e+07 M⁻¹ s⁻¹,FVIII C2 domain protein R2307Q (from UniProt P00451 2189-2351),,,,
7.3 pM,0.00011 s⁻¹,1.5e+07 M⁻¹ s⁻¹,FVIII C2 domain protein S2173I (from UniProt P00451 2189-2351),,,,
5.8 pM,3.5e-05 s⁻¹,6e+06 M⁻¹ s⁻¹,FVIII C2 domain protein T2202A (from UniProt P00451 2189-2351),,,,
9.8 pM,5.2e-05 s⁻¹,5.3e+06 M⁻¹ s⁻¹,FVIII C2 domain protein T2253A (from UniProt P00451 2189-2351),,,,
4.2 pM,5.4e-05 s⁻¹,1.3e+07 M⁻¹ s⁻¹,FVIII C2 domain protein T2272A (from UniProt P00451 2189-2351),,,,
6.3 pM,3.6e-05 s⁻¹,5.7e+06 M⁻¹ s⁻¹,FVIII C2 domain protein V2223M (from UniProt P00451 2189-2351),,,,
11 pM,8.7e-05 s⁻¹,8.2e+06 M⁻¹ s⁻¹,FVIII C2 domain protein W2313Y (from UniProt P00451 2189-2351),,,,
,,,IFKYKWTVTVEDGPTKSDPR [Mutant A2-18],yes,yes,Very strong staining,Very strong staining
,,,IKTQGARQKFSSLYISQFII [Mutant C1-13],no,no,,
,,,KEFLISSSQDGHQWTLFFQN [Mutant C2-12],,no,,
,,,KFSSLYISQFIIMYSLDGKK [Mutant C1-14],no,no,,
,,,KGVKHLKDFPILPGEIFKYK [Mutant A2-16],no,no,,
,,,KVFQGNQDSFTPVVNSLDPP [Mutant C2-15],,no,,
,,,LAPMIIHGIKTQGARQKFSS [Mutant C1-12],no,no,,
,,,LFFQNGKVKVFQGNQDSFTP [Mutant C2-14],,no,,
,,,LGMESKAISDAQITASSYFT [Mutant C2-2],no,,,
,,,QFIIMYSLDGKKWQTYRGNS [Mutant C1-15],no,no,,
,,,SDAQITASSYFTNMFATWSP [Mutant C2-3B],weak,,,
,,,SLLTSMYVKEFLISSSQDGH [Mutant C2-11],,no,,
,,,SQDGHQWTLFFQNGKVKVFQ [Mutant C2-13],,no,,
,,,VEDGPTKSDPRCLTRYYSSF [Mutant A2-19],no,no,,
